Measurements from US20260174875A1 (Novo Nordisk A/S, priority 2023, published 2026).
Numbered stars: 1 amine (or outer) side, 2 acyl side, 3 side chain; on linkers, the order of the positions; unused ones are H or OH. Square brackets hold non-standard residues; d marks the D form. Side chains are listed from the residue outwards. * marks the point of attachment. C20 diacid = O=C(O)CCCCCCCCCCCCCCCCCCC(=O)*; C18 diacid = O=C(O)CCCCCCCCCCCCCCCCC(=O)*; C16 diacid = O=C(O)CCCCCCCCCCCCCCC(=O)*; γGlu = O=C(O)[C@H](CCC(=O)[*:2])N[*:1]; Chem. 28 = not defined here; AEEA = NCCOCCOCC(=O)O; Aib = CC(C)(N)C(=O)O

B1: Compound 61 (peptide)
peptide: H[Aib]HGTFTSDYSILLEEQAAREFIEWLLAGGPSK([AEEA-AEEA-γGlu-C16 diacid])GAPPPSGGGEASHLSTAQTARLSAELHRLADLPRTETGSGSP-NH2
B2: Compound 59 (peptide)
peptide: Y[Aib]EGTFTSDYSILLEEQAAREFIEWLLAGGPSSGALAQTLAQTLASHLSTAQTQRLSAELHK([AEEA-AEEA-γGlu-C16 diacid])LATLPRTETGSGSP-NH2
B3: Compound 55 (peptide)
peptide: Y[Aib]EGTFTSDYSILLEEQAAREFIEWLLAGGPSSGAGQAPGQAPGASHLSTAQTQRLSAK(Chem. 28)LHRLATLPRTETGSGSP-NH2
modifications: reading uncertain
B4: Compound 52 (peptide)
peptide: Y[Aib]EGTFTSDYSILLEEQAAREFIEWLLAGGPSSGAGQAPGQAPGASHLSTAQTQRLSAELHK(Chem. 28)LATLPRTETGSGSP-NH2
modifications: reading uncertain
B5: Compound 67 (peptide)
peptide: Y[Aib]EGTFTSDYSILLEEQAAREFIEWLLAGGPSRGEASELSTAALGRLSAELHK([AEEA-AEEA-γGlu-C18 diacid])LATLPRTETGSGSP-NH2
B6: Compound 60 (peptide)
peptide: Y[Aib]EGTFTSDYSILLEEQAAREFIEWLLAGGPSSGALAQTLAQTLASHLSTAQTQRLSAELHK([AEEA-AEEA-γGlu-C20 diacid])LATLPRTETGSGSP-NH2
B7: Compound 64 (peptide)
peptide: H[Aib]HGTFTSDYSILLEEQAAREFIEWLLAGGPSK([AEEA-AEEA-γGlu-C18 diacid])GEASQLSTAALGRLSAELHQLATLPRTETGSGSP-NH2
B8: Compound 62 (peptide)
peptide: H[Aib]HGTFTSDYSILLEEQAAREFIEWLLAGGPSK([AEEA-AEEA-γGlu-C16 diacid])GEASQLSTAALGRLSAELHRLADLPRTETGSGSP-NH2
B9: Compound 57 (peptide)
peptide: Y[Aib]EGTFTSDYSILLEEQAAREFIEWLLAGGPSSGAGQAPGQAPGASHLSTAQTQRLSAELHRLATLPK(Chem. 28)TETGSGSP-NH2
modifications: reading uncertain
B10: Compound 51 (peptide)
peptide: H[Aib]HGTFTSDYSILLEEQAAREFIEWLLAGGPSSGALAQTLAQTLASHLSTAQTQRLSAELHK(Chem. 28)LATLPRTETGSGSP-NH2
modifications: reading uncertain
B11: Compound 56 (peptide)
peptide: Y[Aib]EGTFTSDYSILLEEQAAREFIEWLLAGGPSSGAGQAPGQAPGASHLSTAQTQRLSAELHRLK(Chem. 28)TLPRTETGSGSP-NH2
modifications: reading uncertain
B12: Compound 53 (peptide)
peptide: Y[Aib]EGTFTSDYSILLEEQAAREFIEWLLAGGPSSGAGQAPGQAPGASHLSTAALGRLSAELHK(Chem. 28)LATLPRTETGSGSP-NH2
modifications: reading uncertain
B13: Compound 65 (peptide)
peptide: H[Aib]HGTFTSDYSILLEEQAAREFIEWLLAGGPSK([AEEA-AEEA-γGlu-C18 diacid])GEASQLSTAALGRLSAELHGLATLPRTETGSGSP-NH2
B14: Compound 58 (peptide)
peptide: Y[Aib]EGTFTSDYSILLEEQAAREFIEWLLAGGPSSGAGQAPGQAPLASHLSTAQTQRLSAELHK(Chem. 28)LATLPRTETGSGSP-NH2
modifications: reading uncertain
B15: Compound 63 (peptide)
peptide: H[Aib]HGTFTSDYSILLEEQAAREFIEWLLAGGPSK([AEEA-AEEA-γGlu-C18 diacid])GEASQLSTAALGRLSAELHTLATLPRTETGSGSP-NH2

Biological target: T1, human GIP receptor (human, UniProt P48546 22-466)
T1 sequence (looked up): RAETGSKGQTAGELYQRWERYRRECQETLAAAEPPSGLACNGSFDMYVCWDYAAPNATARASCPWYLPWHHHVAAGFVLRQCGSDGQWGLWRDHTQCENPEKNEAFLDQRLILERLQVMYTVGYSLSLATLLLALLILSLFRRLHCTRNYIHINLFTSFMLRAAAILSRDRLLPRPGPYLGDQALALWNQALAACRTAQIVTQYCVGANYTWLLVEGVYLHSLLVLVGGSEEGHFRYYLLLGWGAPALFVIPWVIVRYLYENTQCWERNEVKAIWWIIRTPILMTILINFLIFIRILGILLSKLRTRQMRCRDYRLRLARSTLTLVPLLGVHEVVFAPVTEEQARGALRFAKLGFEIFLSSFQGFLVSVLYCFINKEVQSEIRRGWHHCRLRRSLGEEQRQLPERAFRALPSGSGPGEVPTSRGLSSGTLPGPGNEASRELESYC
Assay: cell-based or functional assay

Binder | hGIPR Potency, 1% HSA, EC50 [pM]
B1 | 16
B2 | 27.2
B3 | 10.3
B4 | 6.79
B5 | 37
B6 | 28.3
B7 | 100
B8 | 47.2
B9 | 5.85
B10 | 61.9
B11 | 8.48
B12 | 14.6
B13 | 118
B14 | 7.58
B15 | 63.2

Biological target: T2, human amylin-3(a) receptor (human, UniProt P30988 25-474; O60896 24-148)
T2 sequence (looked up) 1: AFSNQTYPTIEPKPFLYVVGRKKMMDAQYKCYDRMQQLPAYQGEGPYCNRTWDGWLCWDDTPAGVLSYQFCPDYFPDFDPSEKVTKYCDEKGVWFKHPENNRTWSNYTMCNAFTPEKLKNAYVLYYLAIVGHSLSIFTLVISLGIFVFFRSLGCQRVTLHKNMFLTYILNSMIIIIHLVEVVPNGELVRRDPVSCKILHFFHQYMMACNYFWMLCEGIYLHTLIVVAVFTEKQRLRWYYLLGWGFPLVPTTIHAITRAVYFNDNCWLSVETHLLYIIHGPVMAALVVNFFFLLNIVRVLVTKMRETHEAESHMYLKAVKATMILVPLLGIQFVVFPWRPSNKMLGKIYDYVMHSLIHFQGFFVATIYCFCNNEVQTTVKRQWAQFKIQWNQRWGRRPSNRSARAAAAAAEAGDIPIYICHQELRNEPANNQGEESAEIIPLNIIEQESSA
T2 sequence (looked up) 2: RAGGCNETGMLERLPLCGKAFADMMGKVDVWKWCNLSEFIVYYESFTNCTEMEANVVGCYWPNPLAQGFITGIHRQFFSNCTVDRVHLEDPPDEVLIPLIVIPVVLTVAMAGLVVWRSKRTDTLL
Assay: cell-based or functional assay

Binder | hAMYR3 Potency, 1% HSA, EC50 [pM]
B1 | 30.8
B2 | 24.2
B3 | 34
B4 | 119
B5 | 190
B6 | 191
B7 | 109
B8 | 28.8
B9 | 85
B10 | 57.1
B11 | 44.9
B12 | 75.9
B13 | 127
B14 | 134
B15 | 70.2

Biological target: T3, human GLP-1 receptor (human, UniProt P43220 24-463)
Assay: cell-based or functional assay

Binder | hGLP-1R Potency, 1% HSA, EC50 [pM]
B1 | 14.7
B2 | 39.8
B3 | 45.3
B4 | 26.9
B5 | 105
B6 | 173
B7 | 67.8
B8 | 11.5
B9 | 29.6
B10 | 32.2
B11 | 58.4
B12 | 79.2
B13 | 100
B14 | 25.6
B15 | 101

Biological target: T1, human GIP receptor
Assay: cell-based or functional assay
Remark: another data set of the same source

Binder | hGIPR Potency, no HSA, EC50 [pM]
B1 | 1.3
B2 | 7.72
B3 | 3
B4 | 1.83
B5 | 4.28
B6 | 6.06
B7 | 2.03
B8 | 2.26
B9 | 1.98
B10 | 8.37
B11 | 2.65
B12 | 3.25
B13 | 1.89
B14 | 1.88
B15 | 1.6

Biological target: T2, human amylin-3(a) receptor
Assay: cell-based or functional assay
Remark: another data set of the same source

Binder | hAMYR3 Potency, no HSA, EC50 [pM]
B1 | 2.97
B2 | 3.85
B3 | 2.22
B4 | 2.85
B5 | 3.66
B6 | 3.85
B7 | 1.91
B8 | 3.35
B9 | 3
B10 | 6.19
B11 | 2.36
B12 | 3.22
B13 | 2.84
B14 | 2.91
B15 | 2.86

Biological target: T3, human GLP-1 receptor
Assay: cell-based or functional assay
Remark: another data set of the same source

Binder | hGLP-1R Potency, no HSA, EC50 [pM]
B1 | 2.79
B2 | 50.6
B3 | 23
B4 | 11
B5 | 15.4
B6 | 94.4
B7 | 3.71
B8 | 4.13
B9 | 12.8
B10 | 7.68
B11 | 18.2
B12 | 23.3
B13 | 4.86
B14 | 12.7
B15 | 4.77
